To fix the notation:
B1: CAMK2D (parent)
chain: IVRLHDSISEEGFHYLVFDLVTGG
B2: PTPN9 (parent)
chain: IDFLRVVRNQQSLAVSNMGARSKG
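Further: lentivirally expressed fusions sorted by FACS into six bins by GFP to DsRed ratio, PSI derived from sequencing read proportions per bin multiplied by bin number.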

Variants of B1 are the subject of the first data set. Nature of the data set: protein stability index of a GFP-peptide fusion (GPS, HEK-293T) (PSI 1-6); higher = more stable. Particulars: c terminus: a fixed tail appended.
IVRLHDSNSEEGFHYLVFDLVTGG: the protein stability index worked out at 3.02. Still for that read-out and setting: as for IVRLHDSSSEEGFHYLVFDLVTGG, the figure is 3.33; as for IVRLHDSCSEEGFHYLVFDLVTGG, 2.85. IVRLHDSRSEEGFHYLVFDLVTGG: the protein stability index amounted to 1.65.

Take IVRLHDSHSEEGFHYLVFDLVTGG: the protein stability index turned out to be 3.29.

As for IVRLHDSTSEEGFHYLVFDLVTGG, the protein stability index is 2.61. On the same count and under the same terms, as for IVRLHDSESEEGFHYLVFDLVTGG, the figure is 1.44.

Another data set covers variants of B2. The description is as above. Particulars: c terminus: a fixed tail appended.
Regarding IDFLRVVRNQQSLAVSNMGARSCG, the protein stability index turned out to be 1.88. Same read-out and setting: as for IDFLRVVRNQQSLAVSNMGARSTG, the figure is 1.32.

As to IDFLRVVRNQQSLAVSNMGARSDG, the protein stability index was found to be 2.36. On to IDFLRVVRNQQSLAVSNMGARSVG, for which the protein stability index was 1.72. Still for that read-out and setting: to IDFLRVVRNQQSLAVSNMGARSWG belongs 1.59; to IDFLRVVRNQQSLAVSNMGARSRG, 2.4. Still for that read-out and setting: to IDFLRVVRNQQSLAVSNMGARSSG belongs 1.68.

Take IDFLRVVRNQQSLAVSNMGARSHG: the protein stability index is 1.75. As for IDFLRVVRNQQSLAVSNMGARSEG, the protein stability index is 2.32. Still for that read-out and setting: as for IDFLRVVRNQQSLAVSNMGARSQG, the figure is 3.29. The same measure, in the same setting: to IDFLRVVRNQQSLAVSNMGARSNG belongs 2.02; to IDFLRVVRNQQSLAVSNMGARSYG, 1.92. The same measure, in the same setting: as for IDFLRVVRNQQSLAVSNMGARSFG, the figure is 1.51. IDFLRVVRNQQSLAVSNMGARSAG: the protein stability index was found to be 2.01.

Turning to IDFLRVVRNQQSLAVSNMGARSMG, the protein stability index is 1.91.

IDFLRVVRNQQSLAVSNMGARSPG: the protein stability index amounted to 2.09. On the same count and under the same terms, as for IDFLRVVRNQQSLAVSNMGARSLG, the figure is 1.72; as for IDFLRVVRNQQSLAVSNMGARSGG, 1.96; as for IDFLRVVRNQQSLAVSNMGARSIG, 1.72. The same measure, in the same setting: as for IDFLRVVRNQQSLAVSNMGARDKG, the figure is 2.69. On the same count and under the same terms, to IDFLRVVRNQQSLAVSNMGARPKG belongs 2.4; to IDFLRVVRNQQSLAVSNMGARCKG, 2.51; to IDFLRVVRNQQSLAVSNMGARWKG, 2.4. As for IDFLRVVRNQQSLAVSNMGARQKG, the protein stability index came to 2.86. The same measure, in the same setting: to IDFLRVVRNQQSLAVSNMGARIKG belongs 2.05. As for IDFLRVVRNQQSLAVSNMGARTKG, the protein stability index came to 2.23. On to IDFLRVVRNQQSLAVSNMGARKKG, for which the protein stability index was 2.46. Turning to IDFLRVVRNQQSLAVSNMGARGKG, the protein stability index was 2.27. Still for that read-out and setting: to IDFLRVVRNQQSLAVSNMGARRKG belongs 2.64; to IDFLRVVRNQQSLAVSNMGARYKG, 2.16; to IDFLRVVRNQQSLAVSNMGARVKG, 2.03. As for IDFLRVVRNQQSLAVSNMGAREKG, the protein stability index amounted to 3.13. The same measure, in the same setting: as for IDFLRVVRNQQSLAVSNMGARLKG, the figure is 2.07. The same measure, in the same setting: to IDFLRVVRNQQSLAVSNMGARFKG belongs 2.24; to IDFLRVVRNQQSLAVSNMGARMKG, 1.81.

In the case of IDFLRVVRNQQSLAVSNMGARAKG, the protein stability index amounted to 2.2. In the case of IDFLRVVRNQQSLAVSNMGARNKG, the protein stability index was 2.57. Turning to IDFLRVVRNQQSLAVSNMGARHKG, the protein stability index is 2.55. The same measure, in the same setting: to IDFLRVVRNQQSLAVSNMGAWSKG belongs 2.18.

As to IDFLRVVRNQQSLAVSNMGAVSKG, the protein stability index was 2. The same measure, in the same setting: as for IDFLRVVRNQQSLAVSNMGASSKG, the figure is 2.37. On the same count and under the same terms, as for IDFLRVVRNQQSLAVSNMGADSKG, the figure is 2.54; as for IDFLRVVRNQQSLAVSNMGAESKG, 2.3. As to IDFLRVVRNQQSLAVSNMGAQSKG, the protein stability index is 2.18. The same measure, in the same setting: as for IDFLRVVRNQQSLAVSNMGAMSKG, the figure is 1.77; as for IDFLRVVRNQQSLAVSNMGAKSKG, 2.4; as for IDFLRVVRNQQSLAVSNMGALSKG, 1.7. On the same count and under the same terms, as for IDFLRVVRNQQSLAVSNMGAASKG, the figure is 2.6; as for IDFLRVVRNQQSLAVSNMGAPSKG, 2.15. Take IDFLRVVRNQQSLAVSNMGANSKG: the protein stability index worked out at 2.65. On the same count and under the same terms, to IDFLRVVRNQQSLAVSNMGAFSKG belongs 2.45; to IDFLRVVRNQQSLAVSNMGACSKG, 1.83.

Regarding IDFLRVVRNQQSLAVSNMGAYSKG, the protein stability index worked out at 2.08.

In the case of IDFLRVVRNQQSLAVSNMGAISKG, the protein stability index turned out to be 2.14.

As for IDFLRVVRNQQSLAVSNMGATSKG, the protein stability index was determined as 1.66. The same measure, in the same setting: to IDFLRVVRNQQSLAVSNMGAHSKG belongs 2.67; to IDFLRVVRNQQSLAVSNMGAGSKG, 3.16. The same measure, in the same setting: to IDFLRVVRNQQSLAVSNMGARSKW belongs 1.76. Still for that read-out and setting: as for IDFLRVVRNQQSLAVSNMGARSKT, the figure is 2.63; as for IDFLRVVRNQQSLAVSNMGARSKC, 1.84. Consider IDFLRVVRNQQSLAVSNMGARSKF, for which the protein stability index is 1.84. In the case of IDFLRVVRNQQSLAVSNMGARSKE, the protein stability index was 2.95. The same measure, in the same setting: to IDFLRVVRNQQSLAVSNMGARSKP belongs 2.2; to IDFLRVVRNQQSLAVSNMGARSKH, 2.27. For IDFLRVVRNQQSLAVSNMGARSKR, the protein stability index stood at 2.48. With IDFLRVVRNQQSLAVSNMGARSKY, the protein stability index worked out at 3.1. Still for that read-out and setting: as for IDFLRVVRNQQSLAVSNMGARSKM, the figure is 2.18; as for IDFLRVVRNQQSLAVSNMGARSKA, 2.55. Still for that read-out and setting: as for IDFLRVVRNQQSLAVSNMGARSKV, the figure is 2.45; as for IDFLRVVRNQQSLAVSNMGARSKL, 2.18; as for IDFLRVVRNQQSLAVSNMGARSKD, 2.75. Still for that read-out and setting: to IDFLRVVRNQQSLAVSNMGARSKK belongs 3.05; to IDFLRVVRNQQSLAVSNMGARSKI, 2.3; to IDFLRVVRNQQSLAVSNMGARSKN, 2.46. Regarding IDFLRVVRNQQSLAVSNMGARSKQ, the protein stability index is 2.72. Same read-out and setting: to IDFLRVVRNQQSLAVSNMGARSKS belongs 2.28; to IDFLRVVRNQQSLAVSNMGVRSKG, 2.42. The same measure, in the same setting: as for IDFLRVVRNQQSLAVSNMGTRSKG, the figure is 2.06; as for IDFLRVVRNQQSLAVSNMGNRSKG, 2.78. As to IDFLRVVRNQQSLAVSNMGRRSKG, the protein stability index amounted to 2.47. Still for that read-out and setting: to IDFLRVVRNQQSLAVSNMGLRSKG belongs 2.21; to IDFLRVVRNQQSLAVSNMGSRSKG, 2.75; to IDFLRVVRNQQSLAVSNMGYRSKG, 2.44. Same read-out and setting: to IDFLRVVRNQQSLAVSNMGPRSKG belongs 2.57; to IDFLRVVRNQQSLAVSNMGMRSKG, 2.32; to IDFLRVVRNQQSLAVSNMGWRSKG, 2.32. On the same count and under the same terms, to IDFLRVVRNQQSLAVSNMGQRSKG belongs 2.25.

The record behind these values is the supplement of paper PMC10567573.
